Data published in the supplement of paper PMC7877785.
± gives the uncertainty stated by the source.

Test: self-splicing fitness, log relative to wild type (ln ratio); higher = more splicing; Tetrahymena group I intron in knt gene, E. coli kanamycin selection, DiMSum; sequences stand for … in CUCUCU…GGAGGGAAAAGUUAUCAGGCAUGCACCUGGUAGCUAGUCUUUAAACCAAUAGAUUGCAUCGGUUUAAAAGGCAAGACCGUCAAAUUGCGGGAAAGGGGUCAACAGCCGUUCAGUACCAAGUCUCAGGGGAAACUUUGAGAUGGCCUUGCAAAGGGUAUGGUAAUAAGCUGACGGACAUGGUCCUAACCACGCAGCCAAGUCCUAAGUCAACAGAUCUUCUGUUGAUAUGGAUGCAGUUCACAGACUAAAUGUCGGUCGGGGAAGAUGUAUUCUUCUCAUAAGAUAUAGUCGGACCUCUCCUUAAUGGGAGCUAGCGGAUGAAGUGAUGCAACACUGGAGCCGCUGGGAACUAAUUUGUAUGCGAAAGUAUAUUGAUUAGUUUUGGAGUACUCGUGGUCG
In short: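 Fitness was computed with DiMSum as the error-weighted combination of replicate fold changes, kanamycin versus none, each normalised to wild type. The library randomised all eight intron nucleotides of the P1ex region, with the intron placed in the knt kanamycin-resistance gene on pET-22b(+) in E. coli BL21(DE3). Six replicate transformations were grown overnight at 37°C or 30°C on LB agar with or without 25 μg/mL kanamycin, plus 100 μg/mL carbenicillin, 50 μM IPTG and 0.2% rhamnose. Pooled colonies were amplicon-sequenced on an Illumina HiSeq 2500.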

Row | Sequence | self-splicing fitness (ln) (30 °C) | self-splicing fitness (ln) (37 °C)
1 | CAGCAGCAAUAUUACGAUUA | -1.77 ± 0.1 | -1 ± 0.11
2 | CAGCAGCAAUAUUACGCCAC | -4.15 ± 0.26 | -3.31 ± 0.29
3 | CAGCAGCAAUAUUACGCCCG | 0.0522 ± 0.12 | 0.33 ± 0.12
4 | CAGCAGCAAUAUUACGCGAC | -2.71 ± 0.39 | -0.925 ± 0.25
5 | CAGCAGCAAUAUUACGGAGU | -3.15 ± 0.12 | -2.49 ± 0.15
6 | CAGCAGCAAUAUUACGGGCC | -3.41 ± 0.3 | -2.78 ± 0.24
7 | CAGGAGCAAUAUUACGACCG | 0.66 ± 0.2 | 0.00703 ± 0.17
8 | CAGGAGCAAUAUUACGACUC | -2.74 ± 0.11 | -2.14 ± 0.15
9 | CAGGAGCAAUAUUACGAGCC | -2.71 ± 0.29 | -2.44 ± 0.49
10 | CAGGAGCAAUAUUACGAGCG | -1.04 ± 0.13 | 0.24 ± 0.11
11 | CAGGAGCAAUAUUACGCACU | -2.54 ± 0.5 | -1.2 ± 0.34
12 | CAGGAGCAAUAUUACGCAGA | -2.76 ± 0.33 | -2.29 ± 0.2
13 | CAGGAGCAAUAUUACGCCAG | -2.75 ± 0.32 | 
14 | CAGGAGCAAUAUUACGCGCC |  | -2.5 ± 0.26
15 | CAGGAGCAAUAUUACGCGGA | -2.78 ± 0.25 | 
16 | CAGGAGCAAUAUUACGCGGU |  | -3.29 ± 0.47
17 | CAGGAGCAAUAUUACGCUCU | -3.36 ± 0.26 | -2.41 ± 0.26
18 | CAGGAGCAAUAUUACGCUGC | -4.3 ± 0.36 | -2.82 ± 0.36
19 | CAGGAGCAAUAUUACGGCGG | -0.542 ± 0.074 | -0.0448 ± 0.091
20 | CAGGAGCAAUAUUACGGGAC | -2.88 ± 0.25 | -3.24 ± 0.29
21 | CAGGAGCAAUAUUACGGGUA | -4.12 ± 0.42 | -3.31 ± 0.35
22 | CAGGAGCAAUAUUACGGUGU | -3.1 ± 0.15 | -2.66 ± 0.2
23 | CAGGAGCAAUAUUACGGUUU | -3.2 ± 0.41 | 
24 | CAGGAGCAAUAUUACGUAAA | -1.92 ± 0.25 | -1.24 ± 0.31
25 | CAGGAGCAAUAUUACGUGCU | -2.91 ± 0.13 | -2.23 ± 0.14

Row | Sequence | self-splicing fitness (ln) (30 °C) | self-splicing fitness (ln) (37 °C)
26 | CAGGAGCAAUAUUACGUUUU | -3.95 ± 0.35 | -2.3 ± 0.23
27 | CAGUAGCAAUAUUACGACAA | -1.98 ± 0.19 | -1.62 ± 0.15
28 | CAGUAGCAAUAUUACGACCU | -0.458 ± 0.15 | -0.391 ± 0.2
29 | CAGUAGCAAUAUUACGCGUG | -2.65 ± 0.18 | -1.86 ± 0.14
30 | CAGUAGCAAUAUUACGCUAG | -2.14 ± 0.1 | -1.34 ± 0.1
31 | CAGUAGCAAUAUUACGCUGU | -2.72 ± 0.17 | -2.99 ± 0.28
32 | CAGUAGCAAUAUUACGGAGA | -2.32 ± 0.24 | 
33 | CAGUAGCAAUAUUACGGAUC | -3.64 ± 0.43 | -1.48 ± 0.27
34 | CAGUAGCAAUAUUACGGAUU | -2.84 ± 0.17 | -3.21 ± 0.27
35 | CAGUAGCAAUAUUACGGGGG | -3.48 ± 0.33 | -2.02 ± 0.42
36 | CAGUAGCAAUAUUACGGGUG | -0.853 ± 0.06 | -0.398 ± 0.078
37 | CAGUAGCAAUAUUACGUAAG | 0.131 ± 0.069 | -0.159 ± 0.086
38 | CAGUAGCAAUAUUACGUACU | -1.78 ± 0.12 | -1.3 ± 0.1
39 | CAGUAGCAAUAUUACGUAGU | -2.5 ± 0.13 | -2.54 ± 0.18
40 | CAGUAGCAAUAUUACGUAUU | -3.48 ± 0.2 | -1.81 ± 0.2
41 | CAGUAGCAAUAUUACGUCAC | -2 ± 0.25 | 
42 | CAGUAGCAAUAUUACGUCGG | -0.645 ± 0.078 | -0.0434 ± 0.1
43 | CAGUAGCAAUAUUACGUUGU | -4.7 ± 0.28 | -3.14 ± 0.24
44 | CAUAAGCAAUAUUACGACGC | -2.7 ± 0.25 | -0.823 ± 0.19
45 | CAUAAGCAAUAUUACGAGAC | -3.9 ± 0.37 | 
46 | CAUAAGCAAUAUUACGAGAG | -2.88 ± 0.18 | -1.32 ± 0.14
47 | CAUAAGCAAUAUUACGAGCA | -3.98 ± 0.37 | -1.77 ± 0.2
48 | CAUAAGCAAUAUUACGAGGU | -2.81 ± 0.16 | -2.6 ± 0.18
49 | CAUAAGCAAUAUUACGAGUA | -2.34 ± 0.15 | -1.45 ± 0.15
50 | CAUAAGCAAUAUUACGAUCA | -2.28 ± 0.21 | -1.87 ± 0.2

Row | Sequence | self-splicing fitness (ln) (30 °C) | self-splicing fitness (ln) (37 °C)
51 | CAUAAGCAAUAUUACGAUGA | -2.58 ± 0.14 | -0.929 ± 0.13
52 | CAUAAGCAAUAUUACGCCUC | -2.88 ± 0.39 | -1.75 ± 0.41
53 | CAUAAGCAAUAUUACGCCUU | -3.7 ± 0.19 | -1.96 ± 0.17
54 | CAUAAGCAAUAUUACGCGUG | -3.79 ± 0.26 | -2.88 ± 0.2
55 | CAUAAGCAAUAUUACGCUAA | -2.58 ± 0.3 | -0.864 ± 0.24
56 | CAUAAGCAAUAUUACGCUAC |  | -1.79 ± 0.21
57 | CAUAAGCAAUAUUACGCUUU | -3.86 ± 0.26 | -2.73 ± 0.24
58 | CAUAAGCAAUAUUACGGCCA | -2.38 ± 0.26 | -2.62 ± 0.29
59 | CAUAAGCAAUAUUACGGCGA | -1.96 ± 0.18 | -0.178 ± 0.15
60 | CAUAAGCAAUAUUACGGGAA | -2.98 ± 0.21 | -2.23 ± 0.16
61 | CAUAAGCAAUAUUACGUACU |  | -2 ± 0.32
62 | CAUAAGCAAUAUUACGUAUG | -3.87 ± 0.2 | -2.74 ± 0.23
63 | CAUAAGCAAUAUUACGUCAU | -3.67 ± 0.19 | -2.19 ± 0.19
64 | CAUAAGCAAUAUUACGUGCA | -3.45 ± 0.23 | -2.4 ± 0.18
65 | CAUAAGCAAUAUUACGUGGG | -3.38 ± 0.12 | -3.49 ± 0.18
66 | CAUAAGCAAUAUUACGUUGA | -3.55 ± 0.16 | -2.85 ± 0.16
67 | CAUAAGCAAUAUUACGUUUA | -2.97 ± 0.23 | -2.42 ± 0.28
68 | CAUCAGCAAUAUUACGAAGA | -2.97 ± 0.27 | -0.441 ± 0.15
69 | CAUCAGCAAUAUUACGAAGC | -3.23 ± 0.47 | -2.2 ± 0.41
70 | CAUCAGCAAUAUUACGACGA | -1.38 ± 0.16 | -0.863 ± 0.14
71 | CAUCAGCAAUAUUACGAGAC | -3.95 ± 0.23 | -2.73 ± 0.16
72 | CAUCAGCAAUAUUACGAGCU | -1.92 ± 0.26 | -2.3 ± 0.47
73 | CAUCAGCAAUAUUACGAUUC | -1.62 ± 0.071 | -0.269 ± 0.073
74 | CAUCAGCAAUAUUACGCAAC |  | -1.59 ± 0.28
75 | CAUCAGCAAUAUUACGCCUG | -0.718 ± 0.092 | -0.495 ± 0.098

Row | Sequence | self-splicing fitness (ln) (30 °C) | self-splicing fitness (ln) (37 °C)
76 | CAUCAGCAAUAUUACGCCUU | -1.92 ± 0.12 | -0.379 ± 0.12
77 | CAUCAGCAAUAUUACGCUCA | -1.55 ± 0.18 | -0.924 ± 0.16
78 | CAUCAGCAAUAUUACGCUUG | -2.08 ± 0.084 | -1.03 ± 0.098
79 | CAUCAGCAAUAUUACGGACG | -0.594 ± 0.053 | -0.172 ± 0.08
80 | CAUCAGCAAUAUUACGGCGC | -2.95 ± 0.13 | -0.694 ± 0.15
81 | CAUCAGCAAUAUUACGGGCG | -0.567 ± 0.069 | -0.377 ± 0.074
82 | CAUCAGCAAUAUUACGGGUC | -2.63 ± 0.11 | -0.644 ± 0.1
83 | CAUCAGCAAUAUUACGGGUU | -1.8 ± 0.067 | -0.61 ± 0.08
84 | CAUCAGCAAUAUUACGGUAG | -0.362 ± 0.075 | 0.051 ± 0.085
85 | CAUCAGCAAUAUUACGUAUC | -1.9 ± 0.092 | -1.05 ± 0.098
86 | CAUCAGCAAUAUUACGUGCU | -3.71 ± 0.28 | -2.46 ± 0.21
87 | CAUCAGCAAUAUUACGUUGU | -3.52 ± 0.14 | -2.92 ± 0.16
88 | CAUGAGCAAUAUUACGAAGG | -3.17 ± 0.19 | -2.05 ± 0.21
89 | CAUGAGCAAUAUUACGACAG | -1.89 ± 0.13 | -1.02 ± 0.15
90 | CAUGAGCAAUAUUACGACCU | -2.47 ± 0.29 | -0.931 ± 0.26
91 | CAUGAGCAAUAUUACGACUG | -1.78 ± 0.13 | -0.743 ± 0.18
92 | CAUGAGCAAUAUUACGAGGU | -3.26 ± 0.33 | -3.11 ± 0.4
93 | CAUGAGCAAUAUUACGAUCG | -0.0708 ± 0.12 | -0.399 ± 0.14
94 | CAUGAGCAAUAUUACGCACG | -0.622 ± 0.097 | -0.67 ± 0.11
95 | CAUGAGCAAUAUUACGCCUC |  | -1.75 ± 0.42
96 | CAUGAGCAAUAUUACGCCUG | -2.93 ± 0.21 | -2.02 ± 0.35
97 | CAUGAGCAAUAUUACGCGAC |  | -2.84 ± 0.44
98 | CAUGAGCAAUAUUACGCGUG | -4.92 ± 0.36 | -2.71 ± 0.26
99 | CAUGAGCAAUAUUACGCUAA |  | -2.94 ± 0.43
